Reference: PMC8458463, “Liquid condensation of reprogramming factor KLF4 with DNA provides a mechanism for chromatin organization”

Columns and labels:
Settings in all cases: protein: recombinant; tags: Nano-His6-TEV tag cleaved
KLF4 DBD [1] = biological target: T1, KLF4 DBD (human, UniProt O43474 418-513); test: X-ray crystallography; Zn2+; 2.14 A, 1:1 complex; EMSA: 20 mM Tris pH 8, 50 mM NaCl, 5% glycerol, 0.01 mg/ml BSA, 0.1 mM DTT, 0.05 mM TCEP; gel run at 4 C; protein refolded with 3.3 eq ZnSO4
KLF4 DBD [2] = biological target: T1, KLF4 DBD; test: EMSA; Zn2+; DBD up to 15 uM; EMSA: 20 mM Tris pH 8, 50 mM NaCl, 5% glycerol, 0.01 mg/ml BSA, 0.1 mM DTT, 0.05 mM TCEP; gel run at 4 C; protein refolded with 3.3 eq ZnSO4
KLF4 DBD [3] = biological target: T1, KLF4 DBD; test: EMSA; Zn2+; 1 uM DNA, 0-6 uM DBD; 1:1, 2:1 and 3:1 complexes, 3:1 needs 6 equivalents; EMSA: 20 mM Tris pH 8, 50 mM NaCl, 5% glycerol, 0.01 mg/ml BSA, 0.1 mM DTT, 0.05 mM TCEP; gel run at 4 C; protein refolded with 3.3 eq ZnSO4
KLF4 DBD [4] = biological target: T1, KLF4 DBD; test: EMSA; Zn2+; 1 uM DNA, 0-6 uM DBD; 3:1 complex at 3 equivalents, tighter than NANK; EMSA: 20 mM Tris pH 8, 50 mM NaCl, 5% glycerol, 0.01 mg/ml BSA, 0.1 mM DTT, 0.05 mM TCEP; gel run at 4 C; protein refolded with 3.3 eq ZnSO4

T1 sequence (O43474 418-513): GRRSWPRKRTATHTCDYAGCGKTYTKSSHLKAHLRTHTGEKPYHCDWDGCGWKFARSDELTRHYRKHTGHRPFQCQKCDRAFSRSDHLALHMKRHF

B1: NKA (dsDNA)
DNA 1: AGGGGGTGTGCC
DNA 2: GGCACACCCCCT
- binding result (KLF4 DBD [1]): binds

B2: NKC (dsDNA)
DNA 1: GAGGGGTGGGTC
DNA 2: GACCCACCCCTC
- binding result (KLF4 DBD [2]): binds

B3: NANK (dsDNA)
DNA 1: AGGGGGTGTGCCCGCCAGGAGGGGTGGGTC
DNA 2: GACCCACCCCTCCTGGCGGGCACACCCCCT
- binding result (KLF4 DBD [3]): binds

B4: NKB (dsDNA)
DNA 1: TGCCCGCCAGGA
DNA 2: TCCTGGCGGGCA
- binding result (KLF4 DBD [2]): binds

B5: NANKm (dsDNA)
DNA 1: AGGGGGTGTGCCCGCCAGGAGGGGTGGGTC
DNA 2: GACCCACCCCTCCTGGCGGGCACACCCCCT
modifications: 5-methyl-dC at position 13 of strand 1 (CpG in KLFB); complement strand methylation not stated
- binding result (KLF4 DBD [4]): binds
